Results on one substance are retold here after publication PMC2100151.

In this test the target is Human ASK1 catalytic (kinase) domain, T813A mutant (human) (UniProt Q99683). The test can be described thus: AUC; sedimentation velocity; 13 μM protein in 10 mM HEPES pH 7.4, 120 mM NaCl, 0.25% glycerol, 4°C, 40,000 rpm; c(s) and c(M) distributions (SEDFIT).

“Human ASK1 catalytic (kinase) domain, T813A mutant (from UniProt Q99683 659-951) (domain or fragment)”: the stoichiometry N was 2.

The term stoichiometry N denotes a count of units in the complex or per binding partner.
